Measurements as given in the supplement of paper PMC7125110.
± gives the standard error. Variants at the floor of the assay were thinned out.

B1: glmS ribozyme (parent)
chain: AUAAAAGCGCCAGAACUACAGAAAUGUAGUUGACGAGGAGGAGGUUUAUCGAAUUUUCGGCGGAUGCCUCCAAA

How the values were obtained:
Settings in all cases: with glucosamine-6-phosphate
glucosamine-6-phosphate [1] = variants of: B1; experiment: self-cleavage kobs at 40 uM GlcN6P; higher = faster cleavage; RNA array
Method in brief: (§1)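 Tracking of barcoded ribozyme variants used a hybridised Cy3 probe at 37 °C, after in situ transcription by E. coli RNA polymerase on sequenced MiSeq chips. The flowed solution held 40 μM to 10 mM glucosamine-6-phosphate in HEPES/KCl/Mg(OAc)2 buffer, and imaging ran over ~14 h. kobs was taken from exponential decay fits of normalised per-tile medians, and kcat and KM from weighted Michaelis–Menten fits.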

glucosamine-6-phosphate [2] = variants of: B1; experiment: self-cleavage kobs at 640 uM GlcN6P; higher = faster cleavage; RNA array
Method in brief: as §1

glucosamine-6-phosphate [3] = variants of: B1; experiment: self-cleavage kobs at 2500 uM GlcN6P; higher = faster cleavage; RNA array
Method in brief: as §1

glucosamine-6-phosphate [4] = variants of: B1; experiment: self-cleavage kobs at 10000 uM GlcN6P; higher = faster cleavage; RNA array
Method in brief: as §1

glucosamine-6-phosphate [5] = variants of: B1; experiment: self-cleavage kobs at 160 uM GlcN6P; higher = faster cleavage; RNA array
Method in brief: as §1

| Variant | self-cleavage kobs at 40 uM GlcN6P (glucosamine-6-phosphate [1]) [s⁻¹] | self-cleavage kobs at 640 uM GlcN6P (glucosamine-6-phosphate [2]) [s⁻¹] | self-cleavage kobs at 2500 uM GlcN6P (glucosamine-6-phosphate [3]) [s⁻¹] | self-cleavage kobs at 10000 uM GlcN6P (glucosamine-6-phosphate [4]) [s⁻¹] | self-cleavage kobs at 160 uM GlcN6P (glucosamine-6-phosphate [5]) [s⁻¹] |
| --- | --- | --- | --- | --- | --- |
| U30G C58G | < 1e-05 | 6.88e-05 ± 3e-05 | 6.46e-05 ± 1.8e-05 | 0.000122 ± 1.4e-05 | – |
| C10A U49A C61U G62U | < 1e-05 | – | – | – | – |
| C11U U31A G38U U49A U54G | < 1e-05 | – | – | – | – |
| C11U A15U U69G | 6.47e-05 ± 2.5e-05 | – | – | – | – |
| G13U G40U A48C A53G U57G | < 1e-05 | – | – | – | – |
| A42G C50A A64G C70G | < 1e-05 | – | – | – | – |
| C10U A64C | < 1e-05 | < 1e-05 | < 1e-05 | – | – |
| C11U G51A | < 1e-05 | – | < 1e-05 | – | – |
| G62U G63U | < 1e-05 | – | < 1e-05 | < 1e-05 | < 1e-05 |
| A14G G41U U45A C70U | 0.000293 ± 5.4e-05 | 0.000588 ± 0.00015 | 0.00191 ± 0.00054 | 0.000993 ± 0.00019 | 0.00043 ± 0.00013 |
| G9A C11A G35C A42G | < 1e-05 | – | – | < 1e-05 | – |
| G35U G37U G63U U65C | < 1e-05 | – | – | – | – |
| U46A U49G | < 1e-05 | – | – | 2.85e-05 ± 1.2e-05 | – |
| U49G C61A G62U | < 1e-05 | < 1e-05 | < 1e-05 | < 1e-05 | – |
| A12C G38C U56C | < 1e-05 | – | – | < 1e-05 | – |
| A33G A36U | < 1e-05 | – | < 1e-05 | < 1e-05 | < 1e-05 |
| A6G C11U G32C | < 1e-05 | – | – | – | – |
| A15G G35A | < 1e-05 | – | – | < 1e-05 | < 1e-05 |
| U31G C70U | 0.000479 ± 7.2e-05 | 0.0023 ± 0.00038 | 0.0117 ± 0.0029 | 0.0305 ± 0.0058 | 0.00104 ± 0.0002 |
| G9A C11G A52C C68U | < 1e-05 | – | – | < 1e-05 | – |
| A28G G43C U45A C67G | < 1e-05 | – | – | – | – |
| A42C C71G | < 1e-05 | < 1e-05 | < 1e-05 | < 1e-05 | < 1e-05 |
| C34G A52U U55A | < 1e-05 | – | < 1e-05 | < 1e-05 | – |
| U30C G41C C61A C71U | < 1e-05 | – | – | < 1e-05 | – |
| G9C G63A A64C C70G | < 1e-05 | – | – | < 1e-05 | – |
| G35U U45G | < 1e-05 | < 1e-05 | < 1e-05 | < 1e-05 | < 1e-05 |

| Variant | self-cleavage kobs at 40 uM GlcN6P (glucosamine-6-phosphate [1]) [s⁻¹] | self-cleavage kobs at 640 uM GlcN6P (glucosamine-6-phosphate [2]) [s⁻¹] | self-cleavage kobs at 2500 uM GlcN6P (glucosamine-6-phosphate [3]) [s⁻¹] | self-cleavage kobs at 10000 uM GlcN6P (glucosamine-6-phosphate [4]) [s⁻¹] | self-cleavage kobs at 160 uM GlcN6P (glucosamine-6-phosphate [5]) [s⁻¹] |
| --- | --- | --- | --- | --- | --- |
| A6C G32C U47A | < 1e-05 | < 1e-05 | < 1e-05 | – | – |
| C11A G40C U54A | < 1e-05 | – | – | – | – |
| A15G C70A | 5.87e-05 ± 7.8e-06 | 0.000211 ± 2.2e-05 | 0.000382 ± 4e-05 | 0.00111 ± 0.00023 | 9.45e-05 ± 1.1e-05 |
| U31C G37C | < 1e-05 | – | – | – | < 1e-05 |
| U55G G63A | < 1e-05 | < 1e-05 | < 1e-05 | < 1e-05 | < 1e-05 |
| U31C G44U | < 1e-05 | – | – | 2.15e-05 ± 1e-05 | < 1e-05 |
| C16U A33U G51C | < 1e-05 | – | – | – | – |
| G9C G38U G63A | < 1e-05 | – | – | – | – |
| G7A G13U U55C | < 1e-05 | – | – | < 1e-05 | – |
| A39G U49C A52G G63U C68G | < 1e-05 | – | – | – | – |
| U55A G60A C67U | < 1e-05 | – | – | – | – |
| C8A G44U | < 1e-05 | < 1e-05 | – | < 1e-05 | < 1e-05 |
| G7A A15G C61U C71U | < 1e-05 | – | < 1e-05 | – | < 1e-05 |
| C8A G26U A33C | < 1e-05 | – | – | – | – |
| G7U G44U | < 1e-05 | < 1e-05 | – | < 1e-05 | < 1e-05 |
| G41C A42G A53C G63A | < 1e-05 | < 1e-05 | < 1e-05 | – | – |
| A6C G40U A42C U45A G59C C61G A64U | < 1e-05 | – | < 1e-05 | – | – |
| A6G A12U G66A | < 1e-05 | – | 0.000132 ± 3.5e-05 | 7.44e-05 ± 2.2e-05 | – |
| U31G C50G C70U | 5.37e-05 ± 2.4e-05 | – | – | 4.81e-05 ± 1.5e-05 | – |
| C16G G51C U55A U65A | < 1e-05 | – | < 1e-05 | < 1e-05 | – |
| A12C C34G G37U | < 1e-05 | – | – | < 1e-05 | – |
| G43A U47G | < 1e-05 | < 1e-05 | – | – | – |
| G21U U31A | 0.000447 ± 9.2e-05 | 0.00614 ± 0.0013 | 0.0102 ± 0.0025 | 0.042 ± 0.018 | 0.00108 ± 0.0003 |
| C10U A12U G51U U56A | < 1e-05 | – | – | < 1e-05 | – |
| U49A A52C | < 1e-05 | < 1e-05 | – | < 1e-05 | < 1e-05 |
